Reference: the RNAGym collection of RNA variant scans (doi:10.1073/pnas.2313332121)

B1: TPR t1 (parent)
chain: GACCAAUCUGCCCUCAGAGCUCGAGAACAUCUUCGGAUGCAGAGGAGGCAGGCUUCGGUGGCGCGAUAGCGCCAACGUCCUCAACCUCCAAUGCAUCCCACCACAUGAUGAUGCCUGAAGAGCCUUGGUUUUUUG

Variants of: B1
Assay: polymerase ribozyme fitness, log enrichment relative to wild type (log ratio); higher = more active; in vitro selection for triplet polymerase activity
Method in brief: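 Only genotypes with ≥10 input reads and ≥1 read per output were kept after Illumina sequencing of input and output libraries. These libraries were PCR-built, transcribed mutants of each subunit of a heterodimeric triplet polymerase ribozyme, each put through one triplicate in vitro selection round with frozen incubation at −7 °C, gel excision of extended constructs, streptavidin-bead capture and RT-PCR. Fitness is a logarithmic ratio of genotype enrichment to wild-type enrichment, from inverse-variance-weighted replicate averages, with the logarithm in base 2.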

| Variant | polymerase ribozyme fitness (log ratio) |
| --- | --- |
| GACCAUUGUGCCCUCAGAGCUCGAGAACAUCUUCGGAUGCAGAGGAGGCAGGCUUCGGUGGCGCGAUAGCGCCAACGUCCUCAACCUCCAAUGCAUCCCACCACAUGAUGAUGCCUGAAGAGCCUUGGUUUUUUG [A6U C8G] | 0.868 |
| GACCAUUCUGCCCUCAGAGCUCGAGAACAUCUUCGGAUGCAGAGGAGGCAGGCUUCGGUGGCGCGAUAGCGCCAACGUCCUCAACCUCCAAUGCAUCCCACCACCUGAUGAUGCCUGAAGAGCCUUGGUUUUUUG [A6U A105C] | -1.94 |
| GACCAUUCUGCCCUCAGAGCUCGAGAACAUCUUCGGUUGCAGAGGAGGCAGGCUUCGGUGGCGCGAUAGCGCCAACGUCCUCAACCUCCAAUGCAUCCCAGCACAUGAUGAUGCCUGAAGAGACGUGGUUUAUUG [A6U A37U C101G C123A U125G U132A] | -2.11 |
| GACCAUUGUGCCCUCAGAGCUCGAGAACAUCUUCGGAUGCAGACGAGGCAGGCUUCGGUGGCGUGAUAGCGCCAACGUCCUCAACCUCCAAUGCACCCCACCACAUGAUGAUGCCUGAAGAGCCUUGGUUUUUUG [A6U C8G G44C C64U U96C] | -1.02 |
| GACCAUUCUGCCCUCAGAGCUCGAGAACAUCUUCGGAUGCGGAGGAGGCAGGCUUCGGUGGCGCGAUAGCGCCAACGUCCACAACCUCCAAUGCAUCCCACCACAUGAUGAUGCCUGAAGAGCCUUGGUUUUUUG [A6U A41G U81A] | -1.63 |
| GACCAUUGUGCCCUCAGAGCUCGAGAACAUCUUCGGAUGCAGAGGAGGCAGGCUUCGGUGGCGCGAUAGCGUCAACGUCCUCAACGUCCAAUGCAUCCCACCACAUGAUGAUGCCUGAAGAGCCUUGGUUUUUUG [A6U C8G C72U C86G] | -0.629 |
| GACCAUUCUGCCCUCAGAGCUCGAGAACAUCUUCGGAUGCAGAGGAGGCAGGCUUCGGUGGCGCGAUAGCGCCAACGUCCUCAACCUCCAAUGCAUCCCACCACCUGAUGAUGCCCGAAGAGCCUUGGUUUUUUG [A6U A105C U116C] | -6.02 |
| GACCAUUCUGCCCUCAGAGCUCGAGAACAUCUUCGGAUGCAGAGGAGGCAGGCUUCGGUGGCGCGAUAGCGCCAACGUCCUCAACCUCCACUGCAUCCCACCACAUGAUGAUGCCUGAAGAGCCUUGGUUUUUUG [A6U A91C] | -1.21 |
| GACCAUUGUGCCAUCAGAUCUCGAGAACAUCUUCGGAUGCAGAGGAGGCAGGCUUCGGUGCCGCGAUAGCGCCAACGUCCUCAACCUCCAAUCCAUCCCACCACAUGAUGAUGCCUGAACAGCCUUGGUUUUUUG [A6U C8G C13A G19U G61C G93C G120C] | -5.97 |
| GACCAUUCUGCCCUCAGAGCUCGAGAACAUCUUCGGAUGCAGAGGAGGCAGGCUUCGGUGGCGCGAUAGCGCCAACGUCCUCAACCUCCAAUGCAUCCCCCCACAAGAUGAUGCCUGAAGAGCCUUGGUUUUUUG [A6U A100C U106A] | 0.0954 |
| GACCAUUCUGCCCUCAGAGCUCGAGAACAUCUUCGGUUGCAGAGGAGGCAGGCUUCGGUGGCGCGAUAGCGCCAACGUCCUCAACCUCCAAUGCAUCCCACCACAUGAUGAUGCCUGAAGAGCCUUGGUUUUUUG [A6U A37U] | -0.0542 |
| GACCAUUCUGCCCUCAGAGCUCGAGAACAUCUUCGGCUGCAGAGGAGGCAGGCUUCGGUGGCGCGAUAGCGCCAACGUCCUCAACCUCCAAUGCAUCCCACCACAUGAUGAUGCCUGAAGAGCCUUGGUUUUUUG [A6U A37C] | -0.207 |
| GACCAUUGUGCCCUCAAAGCUCGAGAACAUCUUCGGAUGCAGAGGAGCCAGGAUUCGGUGGCGCGAUAGCGCCAACGUCCUCAACCUCCAAUGCAUCCCACCACAUGAUGAUGCCUGAAGAGCCUCGGUUUUUUG [A6U C8G G17A G48C C53A U126C] | -4.16 |
| GACCAUUCUGCCCUCAGAGCUCGAGAACAUCUUCGGAUGCAGAGGAGGCAGGCUUCGGUGGCGCGAUAGCGCCAACGUCCUCAACCUCCAAUGCAUCCCACCACAUGAUGAUGCCUGAAGGGCCUUGGUUUUUUG [A6U A121G] | 2.04 |
| GACCAUUCUGCCCUCAGAGCUCGAGAACAUCUUCGGAUGCAGAGGUGGCAGGCUUCGGUGGCGCGAUAGCGCCAACGUCCUCAACCUCCAAUGCAUCCCACCACAUGAUGAUGCCAGAAGAGCCUUGGUUUUUUG [A6U A46U U116A] | -4.28 |
| GACCAUUCUGCCCUCAGAGCUCGAGAACAUCUUCGGAUGCAGAGGUGGCAGGCUUCGGUGGCGCGAUAGCGACAACGUCCUCAACCUCCAAUGCAACCCACCACAUGAUGAUGCCUGAAAAGCCUUGAUUUUUUG [A6U A46U C72A U96A G120A G128A] | -2.92 |
| GACCAUUCUGCCCUCAGAGCUCGAGAACAUCUUCGGAUGCAGAGGAGGCAGGCUUCGGUGGCGCGAUAGCGCCAUCGUCCUAAACCUCCAAUGCAUCCCACCACAUGAUGAUGCAUGAAGAGCCAUGCUUUUUUG [A6U A75U C82A C115A U125A G128C] | -3.75 |
| GACCAUUAUGCCCUCAGAGCUCGAGAACAUCUUCGGAUGCAGAGGAGGCAGGCUUCGGUGGCGCGAUAGCUCCAACGUCCUCAACCUCCAAUGCAUCCCAGCACAUGAUGAUGCCUGAAGAGCCUUGGUUUUUUG [A6U C8A G71U C101G] | -1.45 |
| GACCAUUCUGCCCUCAGAGCUCGAGAACGUCUUCGGAUGCAGAGGAGGCAGGCUUCGGUGGCGCGAUAGCACCAACGUCCUCGACCUCAAAUGCAUCCCACCACAUGACGAUGCCUGAACAGGCUUGGUUUAUUG [A6U A29G G71A A83G C89A U109C G120C C123G U132A] | -6.04 |
| GACCAUUCUGCCCUCAGAGCUCGAGAACAUCUUCGGAUGCAGAGGCGGGAGGCUUCGGUGGCGCGAUAGCGCCAACGUCCUGAACCUCUAAUGCAUCCCACCACAUGAUGAUGCCUGAAGAGCCUUGGUUUUUUG [A6U A46C C49G C82G C89U] | -2.2 |
| GACCAUUCUGCCCUCAGAGCUCGAGAACAUCUUCGGAUGCAGCGGAGGCGGGCUUCGGUGACGCGAUAGCGCCAACGUCCUCAACCUCCAAUGCAUCCCACCACAUGAUGAUGCACGAAGAGCCUUGGUUUUUUG [A6U A43C A50G G61A C115A U116C] | -4.89 |
